Tests used:
troponin complex = troponin complex (UniProt P19429+P63316+P45379); settings: 3'-(CH2)6-SH thiol; SERS sandwich: 300 mM NaCl, 20 mM Tris-HCl, 0.5 mM beta-mercaptoethanol, 20% (w/v) glycerol, 0.05% Tween 20, pH 8.0 (or with 20% human serum), 35 °C, 6 h, then …; cited from earlier work
[1] = biological target: cardiac troponin I (cTnI) (UniProt P19429 2-210); test: SERS sandwich on Au nanoplate; AFM; sandwich with reporter N2; detected from 100 aM in buffer, 100 fM in 20% human serum; AFM capture at 10 pM; SERS sandwich: 300 mM NaCl, 20 mM Tris-HCl, 0.5 mM beta-mercaptoethanol, 20% (w/v) glycerol, 0.05% Tween 20, pH 8.0 (or with 20% human serum), 35 °C, 6 h, then

| Molecule | Kd (troponin complex) | binding result [1] |
| --- | --- | --- |
| CGCATGCCAAACGTTGCCTCATAGTTCCCTCCCCGTGTCC [Probe aptamer] | 3.37 nM |  |
| CGTGCAGTACGCCAACCTTTCTCATGCGCTGCCCCTCTTA [Reporter aptamer] | 3.1 nM |  |
| CGCATGCCAAACGTTGCCTCATAGTTCCCTCCCCGTGTCC (ssDNA, 3'-(CH2)6-SH thiol) [Probe aptamer] |  | binds |

— article PMC7407982, “Troponin Aptamer on an Atomically Flat Au Nanoplate Platform for Detection of Cardiac Troponin I”
